The text below walks through data of patent US20260152557A1 (Adimab, published 2026).

The term Kd denotes the concentration at which binding is half-saturated. The low end stands for tighter binding, the high end for weaker binding.

Assay [1] has as its target T1, cynomolgus CD3εδ-Fc heterodimer (Cy CD3ε Fc / CD3δ Fc-HIS) (cynomolgus, UniProt Q95LI8 22-100).
T1 construct: range 22-100; Produced in HEK 293 cells; also called Cy CD3εδ Fc heterodimer; not shown: Fc-HIS part of CD3δ Fc-HIS
Kind of assay: BLI (Octet), CHO-produced IgG on AHC sensor, CD3εδ-Fc 100 nM in solution, pH 6.0. As for the experimental part: (§1) Anti-CD3 antibodies Antibody Nos. 1-13 were produced as human IgG1 antibodies in yeast or CHO cells. IgGs produced in yeast were aglycosylated, CHO) produced IgGs had standard CH2 glycosylation. Binding affinity to human or cynomolgus CD3εδ-Fc at pH 7.4 and pH 6.0 was measured via biolayer interferometry (BLI) using the ForteBio OCTET® HTX system and analyzed using the ForteBio software.
(§2) Kinetics were analyzed using the 1:1 binding model.

The target of assay [2] is T1, cynomolgus CD3εδ-Fc heterodimer (Cy …). Put plainly: BLI (Octet), yeast-produced IgG on AHC sensor, CD3εδ-Fc 100 nM in solution, pH 7.4. As for the experimental part:
as §1, §2

In assay [3] the target is T2, human CD3εδ-Fc heterodimer (Hu CD3ε Fc / CD3δ Fc-HIS) (human, UniProt P04234 22-100).
T2 construct: range 22-100; Produced in HEK 293 cells with a heterologous signal peptide; heterodimer purified by Ni Sepharose and Mono Q; also called Hu CD3εδ Fc heterodimer; CD3εδ Fc-HIS heterodimer; not shown: Fc-HIS part of CD3δ Fc-HIS
The description is as above. Here is the method:
as §1, §2

Assay [4] has as its target T3, cynomolgus CD3 on HSC-F cells (cynomolgus, UniProt Q95LI5 22-198).
T3 construct: whole, on cells; also called Cyno HSC-F; cynomolgus HSC-F cells
Kind of assay: flow cytometry, yeast-produced IgG 100 nM on HSC-F cells, pH 6.0. Here is the method: (§3) Anti-CD3 antibodies Antibody Nos. 1-13 were produced as aglycosylated IgGs comprising a IgG1 Fc region in yeast cells. Binding to human or cynomolgus CD3-expressing cells (human CD3+ Jurkat cells or cynomolgus HSC-F cells, respectively) at pH 7.4 and pH 6.0 were measured by fluorescence-activated single cell sorting (FACS). Normalized cell binding (NCB) values were calculated based on median fluorescence intensity (MFI) values, CD3 negative Jurkat cells were used as a negative control.
(§4) Cell binding assay, CD3+ and CD3− human Jurkat cells (ATCC) and cynomolgus HSC-F cells (NIH) were thawed and washed with cold PBSF buffer, pH 7.4 (PBS+0.1% BSA, pH 7.4). About 200,000 cells were aliquoted per well of a 96-well plate (FACS Assay Plate VWR BD 353263) and pelleted by centrifugation (5 minutes at 500×g). The cells were washed with either PBSF pH 7.4 or PBSF pH 6.0 (PBS+0.1% BSA, pH 6.0), and then resuspended in 100 μl in either PBSF pH 7.4 or PBSF pH 6.0 with IgG antibody (100 nM) produced in yeast as described above. The mixture (cells+antibody) was incubated for 20 minutes on ice, then washed twice with either PBSF pH 7.4 or PBSF pH 6.0. Cells were resuspended in 50 μl of propidium iodide (Roche; 1:500 dilution) and anti-human IgG-RPE (Southern Biotech; 1:100 dilution) prepared in either PBSF pH 7.4 or PBSF pH 6.0, then incubated for 20 minutes on ice in the dark before cells were washed twice with either PBSF pH 7.4 or PBSF pH 6.0. Binding was analyzed on FACS Canto 11.
(In general: In flow cytometry, cells or beads pass a laser one at a time.)

Assay [5] deals with T1, cynomolgus CD3εδ-Fc heterodimer (Cy …). Put plainly: BLI (Octet), yeast-produced IgG on AHC sensor, CD3εδ-Fc 100 nM in solution, pH 6.0. Here is the method:
as §1, §2
Background: Biolayer interferometry detects binding as a change in optical thickness at a sensor tip.

Assay [6] has as its target T2, human CD3εδ-Fc heterodimer (Hu CD3ε Fc …). Described as above. As for the experimental part:
as §1, §2

Assay [7] has as its target T4, human CD3 on CD3+ Jurkat cells (human, UniProt P07766 23-207).
T4 construct: whole, on cells; The whole CD3 complex stands on the cells; also called Human CD3 Jurkat; human CD3+ Jurkat cells
Kind of assay: flow cytometry, yeast-produced IgG 100 nM on CD3+ Jurkat cells, pH 6.0. As for the experimental part:
as §3, §4

The target of assay [8] is T3, cynomolgus CD3 on HSC-F cells. Kind of assay: flow cytometry, yeast-produced IgG 100 nM on HSC-F cells, pH 7.4. Here is the method:
as §3, §4

Assay [9] concerns the target T1, cynomolgus CD3εδ-Fc heterodimer (Cy …). Kind of assay: BLI (Octet), CHO-produced IgG on AHC sensor, CD3εδ-Fc 100 nM in solution, pH 7.4. Here is the method:
as §1, §2

Assay [10] has as its target T4, human CD3 on CD3+ Jurkat cells. Put plainly: flow cytometry, yeast-produced IgG 100 nM on CD3+ Jurkat cells, pH 7.4. As for the experimental part: as §3, §4
The target in assay [11] is T1, cynomolgus CD3εδ-Fc heterodimer (Cy …). Put plainly: SPR (Biacore 8K), CHO-produced Fab, monovalent, pH 7.4. Here is the method:
(§5) Anti-CD3 antibodies (Antibody Nos. 1-13) were produced as human IgG1 antibodies in yeast or Chinese hamster ovary (CHO) cells, and Fab fragments were generated from the IgG1 antibodies by papain digestion and purified IgGs produced in yeast were aglycosylated. CHO produced IgGs had standard CH2 glycosylation. […] Monovalent binding affinity to human or cynomolgus CD3εδ-Fc at pH 7.4 and pH 6.0 were measured via surface plasmon resonance (SPR) using the BIACORE® 8K (Cytiva, previously GE Healthcare Life Sciences) system and analyzed using BIACORE® Evaluation Software.
(§6) BIACORE® KD measurements (surface plasmon resonance; SPR). BIACORE® affinity measurements were performed generally as previously described. Briefly, human CD3εδ-Fc heterodimer produced as described above was immobilized to a NiNTA sensor chip in a BIACORE® 8K (Cytiva, previously GE Healthcare Life Sciences) to a response level of ˜500 RUs. […] The sensor chip was doubly regenerated between cycles using 0.35 M EDTA and 0.1 M NaOH. The resulting data were double reference subtracted and fit to a 1:1 binding model using BIACORE® Evaluation Software.
A general note: In SPR one partner is held on a chip, and binding of the other changes the refractive index at the surface.

The target is the same in assay [12]. Put plainly: SPR (Biacore 8K), CHO-produced Fab, monovalent, pH 6.0. As for the experimental part:
as §5, §6

Assay [13] deals with T2, human CD3εδ-Fc heterodimer (Hu CD3ε Fc …). The description is as above. As for the experimental part: as §5, §6
Assay [14] shares this target. Put plainly: SPR (Biacore 8K), yeast-produced Fab, monovalent, pH 6.0. As for the experimental part:
as §5, §6

For assay [15] the target is unchanged. Put plainly: BLI (Octet), CD3εδ-Fc on AHC sensor, CHO-derived Fab 100 nM in solution, pH 6.0.
Assay [16] has the same target. Kind of assay: SPR (Biacore 8K), CHO-produced Fab, monovalent, pH 7.4. As for the experimental part:
as §5, §6

Assay [17] has the same target. Put plainly: SPR (Biacore 8K), yeast-produced Fab, monovalent, pH 7.4. Here is the method:
as §5, §6

The target is the same in assay [18]. Put plainly: BLI (Octet), CD3εδ-Fc on AHC sensor, CHO-derived Fab 100 nM in solution, pH 7.4.

T2 sequence (chain, as listed by the source mutant, form in doubt, chain 1 of 2): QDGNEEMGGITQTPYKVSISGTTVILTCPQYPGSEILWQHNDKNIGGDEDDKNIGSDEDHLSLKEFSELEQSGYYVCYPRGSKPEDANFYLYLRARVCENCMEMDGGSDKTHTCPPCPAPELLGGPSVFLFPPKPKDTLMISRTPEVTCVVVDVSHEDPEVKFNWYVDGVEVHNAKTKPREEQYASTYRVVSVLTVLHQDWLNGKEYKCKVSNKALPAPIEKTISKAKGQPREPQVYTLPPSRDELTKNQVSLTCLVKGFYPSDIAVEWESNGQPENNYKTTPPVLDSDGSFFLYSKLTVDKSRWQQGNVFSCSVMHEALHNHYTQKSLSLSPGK
T2 sequence (P04234 22-100, stated change not applied, form in doubt, chain 2 of 2): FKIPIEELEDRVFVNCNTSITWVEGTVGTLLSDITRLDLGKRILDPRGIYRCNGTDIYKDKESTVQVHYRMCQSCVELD
T1 sequence (chain, as listed by the source mutant, form in doubt, chain 1 of 2): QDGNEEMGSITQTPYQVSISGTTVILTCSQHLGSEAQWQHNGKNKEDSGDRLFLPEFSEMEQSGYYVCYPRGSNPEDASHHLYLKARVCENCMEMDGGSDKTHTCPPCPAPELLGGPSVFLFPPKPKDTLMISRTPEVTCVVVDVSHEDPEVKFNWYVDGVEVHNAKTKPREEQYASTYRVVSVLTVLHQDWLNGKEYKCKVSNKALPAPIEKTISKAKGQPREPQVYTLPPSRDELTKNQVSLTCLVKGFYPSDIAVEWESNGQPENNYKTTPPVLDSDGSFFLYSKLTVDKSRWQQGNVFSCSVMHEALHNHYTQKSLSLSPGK
T1 sequence (Q95LI8 22-100, stated change not applied, form in doubt, chain 2 of 2): as the sequence (P04234 22-100, stated change not applied, form in doubt, chain 2 of 2) above, with I5V, N15K, I20V, S32T, D33N, I34N, T64A, S74N counted along it
T3 sequence (Q95LI5 22-198): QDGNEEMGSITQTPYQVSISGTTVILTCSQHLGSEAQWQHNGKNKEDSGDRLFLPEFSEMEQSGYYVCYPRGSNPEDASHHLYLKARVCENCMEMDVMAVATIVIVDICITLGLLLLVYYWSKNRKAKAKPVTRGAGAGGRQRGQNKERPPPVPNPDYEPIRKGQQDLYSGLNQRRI
T4 sequence (P07766 23-207): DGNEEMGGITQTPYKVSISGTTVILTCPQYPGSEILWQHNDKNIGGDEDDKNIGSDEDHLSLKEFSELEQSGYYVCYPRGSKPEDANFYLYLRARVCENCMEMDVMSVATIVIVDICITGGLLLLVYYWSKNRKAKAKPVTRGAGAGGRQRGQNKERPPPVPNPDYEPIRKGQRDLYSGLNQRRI

B1: ADI-26906 (Antibody No. 1), human IgG1 (antibody, V domains shown)
VH: QVQLVQSGAEVKKPGASVKVSCKASGFNIKDYYMHWVRQAPGQRLEWMGWIDLENANTIYDAKFQGRVTITRDTSASTAYMELSSLRSEDTAVYYCARDAYGRYFYDVWGQGTLVTVSS
VL: DIVMTQSPDSLAVSLGERATINCKSSQSLLNARTGKNYLAWYQQKPGQPPKLLIYWASTRESGVPDRFSGSGSGTDFTLTISSLQAEDVAVYYCKQSYSRRTFGGGTKVEIK
notes: Non-pH-dependent parent; Tested as human IgG1 (yeast-produced aglycosylated, or CHO-produced); also called Ab No. 1
Consider B1, for which the equilibrium dissociation constant (Kd) was determined as 5.89 nM in assay [1]; 4.1 nM in assay [2]; 4.35 nM in assay [3]; 2.5 nM in assay [5]; 2.84 nM in [6]; 5.87 nM in assay [9]. For the same molecule, the NCB in assay [4] was 560; in assay [7] it was 203; in assay [8], 167; in [10] it was 149.

B2: Fab of ADI-48587 (Antibody No. 2) (Fab, V domains shown)
VH: QVQLVQSGAEVKKPGASVKVSCKASGFNIKDYYMHWVRQAPGQRLEWMGWIDLENANTIYDAKFQGRVTITRDTSASTAYMELSSLRSEDTAVYYCARDHYHRYFYDVWGQGTLVTVSS
VL: DIVMTQSPDSLAVSLGERATINCKSSQSLLNARTGHNYLAWYQQKPGQPPKLLIYWASTRESGVPDRFSGSGSGTDFTLTISSLQAEDVAVYYCKQSHSHRTFGGGTKVEIK
notes: Fab made by papain digestion of the human IgG1 (yeast- or CHO-produced); also called Antibody No. 2 Fab; ADI-48587 Fab
With B2, the Kd is 62.7 nM in assay [11]; 25.4 nM in assay [12]; 43.2 nM in [13]; 15.7 nM in assay [14]; 65.9 nM in assay [15].

B3: Fab of ADI-26906 (Antibody No. 1) (Fab, V domains shown)
VH: QVQLVQSGAEVKKPGASVKVSCKASGFNIKDYYMHWVRQAPGQRLEWMGWIDLENANTIYDAKFQGRVTITRDTSASTAYMELSSLRSEDTAVYYCARDAYGRYFYDVWGQGTLVTVSS
VL: DIVMTQSPDSLAVSLGERATINCKSSQSLLNARTGKNYLAWYQQKPGQPPKLLIYWASTRESGVPDRFSGSGSGTDFTLTISSLQAEDVAVYYCKQSYSRRTFGGGTKVEIK
notes: Fab made by papain digestion of the human IgG1 (yeast- or CHO-produced); also called Antibody No. 1 Fab; ADI-26906 Fab
As for B3, the Kd came to 1.09 nM in assay [11]; 1.09 nM in assay [16]; 1.9 nM in [12]; 1.25 nM in assay [13]; 2.4 nM in assay [17]; 6.03 nM in [18]. Further, the figures for the dissociation constant (Kd) in [14] and in assay [15] were 1.9 nM and 5.81 nM, respectively.

B4: Fab of ADI-74965 (Antibody No. 3) (Fab, V domains shown)
VH: QVQLVQSGAEVKKPGASVKVSCKASGFNIKDYYMHWVRQAPGQRLEWMGWIDLENANTIYDAKFQGRVTITRDTSASTAYMELSSLRSEDTAVYYCARDAYHRYFYDVWGQGTLVTVSS
VL: DIVMTQSPDSLAVSLGERATINCKSSQSLLNARTGHNYLAWYQQKPGQPPKLLIYWASTRESGVPDRFSGSGSGTDFTLTISSLQAEDVAVYYCKQSHSHRTFGGGTKVEIK
notes: Fab made by papain digestion of the human IgG1 (yeast- or CHO-produced); also called Antibody No. 3 Fab; ADI-74965 Fab
For the molecule B4, the dissociation constant (Kd) in [12] worked out at 11.3 nM; in [13] it was 10.9 nM; in [18], 142 nM; in [14], 10.5 nM; in assay [15] it was 24.4 nM.

B5: Fab of ADI-74968 (Antibody No. 6) (Fab, V domains shown)
VH: QVQLVQSGAEVKKPGASVKVSCKASGFNIKDYYMHWVRQAPGQRLEWMGWIDLENANTIYDAKFQGRVTITRDTSASTAYMELSSLRSEDTAVYYCARDAYHRYFYDVWGQGTLVTVSS
VL: DIVMTQSPDSLAVSLGERATINCKSSQSLLNARTGHNYLAWYQQKPGQPPKLLIYWASTRESGVPDRFSGSGSGTDFTLTISSLQAEDVAVYYCKQSYSHRTFGGGTKVEIK
notes: Fab made by papain digestion of the human IgG1 (yeast- or CHO-produced); also called Antibody No. 6 Fab; ADI-74968 Fab
For the molecule B5, the Kd in assay [11] is 46.5 nM; in assay [16], 47.5 nM; in [12] it was 6.18 nM; in assay [13], 6.37 nM; in assay [18] it was 69.3 nM; in assay [14], 6.07 nM. Moreover, in assay [15], the equilibrium dissociation constant (Kd) was 14.8 nM.

B6: Fab of ADI-74967 (Antibody No. 5) (Fab, V domains shown)
VH: QVQLVQSGAEVKKPGASVKVSCKASGFNIKDYYMHWVRQAPGQRLEWMGWIDLENANTIYDAKFQGRVTITRDTSASTAYMELSSLRSEDTAVYYCARDHYHRYFYDVWGQGTLVTVSS
VL: GIVMTQSPDSLAVSLGERATINCKSSQSLLNARTGKNYLAWYQQKPGQPPKLLIYWASTRESGVPDRFSGSGSGTDFTLTISSLQAEDVAVYYCKQSHSHRTFGGGTKVEIK
notes: Fab made by papain digestion of the human IgG1 (yeast- or CHO-produced); also called Antibody No. 5 Fab; ADI-74967 Fab
For B6, the Kd came out at 73.7 nM in [11]; 55.5 nM in assay [16]; 11.6 nM in assay [12]; 8.16 nM in assay [13]; 8.45 nM in assay [14]; 24.9 nM in [15].
